# In patent publication US20020169118A1 (Amgen, published 2002):
# T1: TNF-β (lymphotoxin) (UniProt P01374 35-205, limits assumed)
# T1 sequence (looked up): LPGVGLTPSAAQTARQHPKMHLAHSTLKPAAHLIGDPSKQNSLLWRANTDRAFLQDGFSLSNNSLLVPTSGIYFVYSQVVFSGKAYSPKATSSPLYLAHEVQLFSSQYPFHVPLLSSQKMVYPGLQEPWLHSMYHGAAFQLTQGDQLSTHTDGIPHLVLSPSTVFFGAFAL
# B1: TNF-BP (TNF binding protein), natural, purified from dialyzed urine of uraemia patients (receptor)
# chain: DSVCPQGKYIHPQNNSICCTKCHKGTYLYNDCPGPGQDTDCRECESGSFTASENHLRHCLSCSKCRKEMGQVEISSCTVDRDTVCGCRKNQYRHYWSENLFQCFNCSLCLNGTVHLSCQEKQNTVCTCHAGFFLRENECVSCSNCKKSLECTKLCLPQIEN
# modifications: glycoprotein; Asn-25 glycosylated (numbering of the TNF-BP cDNA sequence, Leu-1 = first residue after the signal peptide)
# notes: Soluble extracellular part of the human TNF receptor; The main form (about 80% of the protein) starts at Asp-12; also called natural TNF-BP
# Biological target: T1, TNF-β (lymphotoxin)
# Test: preliminary competition binding tests; reference TNF-α
binder,measurement,value
B1,affinity for TNF-β relative to its affinity for TNF-α,~0.02 fold
